Our source for the binding result and fluorescence intensity values is US20190359687A1 (Bayer, published 2019).

In test [1] the target is T1, human glycophorin A in the red blood cell membrane (human, UniProt P02724 20-150).
T1 construct: whole, on cells; used for intact RBC, isolated RBC membranes and transfected cells; the assay field tells which; also called GPA; hGPA
T1 sequence (looked up): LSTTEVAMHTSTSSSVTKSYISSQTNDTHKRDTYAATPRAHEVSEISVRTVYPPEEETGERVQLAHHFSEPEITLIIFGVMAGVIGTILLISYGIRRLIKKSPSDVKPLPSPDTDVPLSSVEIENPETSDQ
Description: FACS, IgG. (In general: A flow cytometer gives signals particle by particle.)
Description: (§1) The binding of the humanized variants to intact red blood cells (RBC) from humans (Hu01 to 03; 3 individuals), Rhesus monkey (Rh01 to 03; 3 individuals) and Cynomolgus monkey (Cy01 to 02; 2 individuals) was measured by fluorescence activated cell sorting (FACS).

Test [2] addresses T1, human glycophorin A in the red blood …. Briefly: FACS, RBC Hu03.
Description: as §1
Test [3] shares this target. Description: FACS, RBC Hu01.
Description: as §1
The target in test [4] is T2, Cynomolgus monkey glycophorin A on Cynomolgus monkey red blood cells (Cynomolgus monkey).
T2 construct: whole, on cells; also called Cyno RBC; Cyno GPA
Description: FACS, RBC Cy01.
Description: as §1

Test [5] addresses T3, Rhesus monkey glycophorin A on Rhesus monkey red blood cells (Rhesus monkey, UniProt A0A1D5Q349 20-150).
T3 construct: whole, on cells; also called Rhesus RBC; monkey GPA
T3 sequence: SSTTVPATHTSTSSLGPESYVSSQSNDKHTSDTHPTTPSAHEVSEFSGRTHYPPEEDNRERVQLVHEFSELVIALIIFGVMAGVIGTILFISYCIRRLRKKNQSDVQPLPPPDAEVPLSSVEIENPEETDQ
Briefly: FACS, RBC Rh02.

Test [6] addresses T1, human glycophorin A in the red blood …. Description: FACS, RBC Hu02.
Description: as §1
Test [7] deals with T3, Rhesus monkey glycophorin A on Rhesus …. Description: FACS, RBC Rh03.
Description: as §1
Test [8] shares this target. Description: FACS, RBC Rh01.
Description: as §1
Test [9] addresses T2, Cynomolgus monkey glycophorin A on …. Briefly: FACS, RBC Cy02.
Description: as §1

B1: Hu6C12-13 (antibody, V domains shown)
VH: EVQLVQSGAEVKKPGASVKVSCKASGYTFTTYTIHWVRQAPGQGLEWMGYINPSSDYTRYNPKFKDRVTLTTDTSTSTAYMELRSLRSDDTAVYYCQRGTRDYWGQGTTVTVSS
VL: DIQLTQSPSFLSASVGDRVTITCSAASSVSYIYWYQQKPGKAPKLLIYSTSTLPSGVPSRFSGSGSGTEYTLTISSLQPEDFATYYCHQRNSFPFTFGQGTKLEIK
notes: IgG format; VH.1d + Vk.1a
Regarding B1, in test [1], the binding result is “no binding”. Moreover, the fluorescence intensity in test [2] was 2; in test [3] it was 3; in test [4], 824; in [5], 1280; in test [6] it was 3; in test [7], 1270. The fluorescence intensity in [8] was determined as 1370; in [9], 937.
